Test results from article PMC9117880.
Values joined by “and” are separate entries in the source; they are usually repeats but may differ in a detail not shown here. Identical values can stand only once. Like-named read-outs stand apart in the source and are kept apart here.

What was measured:
Assay in all cases: MST
[1] = target: SRS-MTBD (22/19) D3402A mutant (not stated | mouse)
[2] = target: SRS-MTBD (22/19) D3402A mutant (not stated | mouse); remark: listed apart in the source
[3] = target: SRS-MTBD (22/19) D3402A mutant (not stated | mouse); remark: listed apart in the source
[4] = target: SRS-MTBD (22/19) D3402A mutant (not stated | mouse); remark: listed apart in the source

With “taxol-stabilized, unlabeled microtubules (porcine brain tubulin) (from UniProt P02550 1-451) (complex)” the Kd [1] was 5.49 µM, the Kd [2] was 0.46 µM and the Kd [3] was 13 µM and 14.7 µM. The Kd [4] was 0.53 µM.
